The chains are these.
B1: Azoarcus group I ribozyme (parent)
chain: GUGCCUUGCGCCGGGAAACCACGCAAGGGAUGGUGUCAAAUUCGGCGAAACCUAAGCGCCCGCCCGGGCGUAUGGCAACGCCGAGCCAAGCUUCGGCGCCUGCGCCGAUGAAGGUGUAGAGACUAGACGGCACCCACCUAAGGCAAACGCUAUGGUGAAGGCAUAGUCCAGGGAGUGGCGAAAGUCACACAAACCGG

In the data set the parent is B1. As to the kind of experiment: reverse-splicing fitness (ratio to wild type); higher = more active; in vitro selection; Mg2+ level not given. In outline: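 An in vitro group I ribozyme library with randomized positions was T7-transcribed and gel-purified. In triplicate, 10 pmol RNA in EPPS pH 7.5 was reacted with 50 pmoles of a 30-nt RNA substrate for 1 h at 37 °C across several added MgCl2 levels (1–48 mM), then stopped with EDTA. Products were reverse transcribed from a substrate-complementary primer, PCR-amplified and sequenced (HiSeq 4000). Fitness is a variant's read proportion after selection over that before, normalised to wild type.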
With C82U A120G A145C C150G C169A, the reverse-splicing fitness is 0.00904.

As to C82U A120G A145C C150G C169U, the reverse-splicing fitness was 0.00822.

For the variant C82U A120G A145C C169A U176G, the reverse-splicing fitness was 0.00332.

C82U A120G A145C C169A U176C: the reverse-splicing fitness amounted to 0.00742.

Regarding C82U A120G A145C C169A U176A, the reverse-splicing fitness turned out to be 0.00959.

Consider C82U A120G C150G C169G U176A, for which the reverse-splicing fitness came to 0.00641.

Regarding C82U A120G C150G C169G U176C, the reverse-splicing fitness came out at 0.0046.

For C82U A120G C150G C169G U176G, the reverse-splicing fitness was 0.00357.

On to C82U A120G C150A C169U, for which the reverse-splicing fitness was 0.00872.

For C82U A120G C150A C169A, the reverse-splicing fitness came to 0.0118.

Consider C82U A120G C150A C169G, for which the reverse-splicing fitness came to 0.0102.

On to C82U A120C C150A C169G, for which the reverse-splicing fitness came to 0.00799.

On to C82U A120C C150A C169U, for which the reverse-splicing fitness worked out at 0.0109.

Consider C82U A120C C150A C169A, for which the reverse-splicing fitness came to 0.00872.

Regarding C82U A120G C150U C169A U176G, the reverse-splicing fitness is 0.00423.

For the variant C82U A120G C150U C169A U176C, the reverse-splicing fitness turned out to be 0.014.

For C82U A120G C150U C169A U176A, the reverse-splicing fitness stood at 0.016.

Take C82U A120C C169U U176C: the reverse-splicing fitness is 0.0166.

Take C82U A120C C169U U176G: the reverse-splicing fitness was found to be 0.00414.

Regarding C82U A120C C169U U176A, the reverse-splicing fitness came to 0.0188.

For C82U A120C C150A U176G, the reverse-splicing fitness was 0.00583.

For the variant C82U A120C C150A U176A, the reverse-splicing fitness was 0.0163.

Take C82U A120C C150A U176C: the reverse-splicing fitness was 0.0193.

For the variant C82U A120G A145G C150A U176C, the reverse-splicing fitness came out at 0.0182.

As to C82U A120G A145G C150A U176A, the reverse-splicing fitness worked out at 0.0092.

C82U A120G A145G C150A U176G: the reverse-splicing fitness worked out at 0.00584.

For C82U A120G A145U C150A U176A, the reverse-splicing fitness was 0.00948.

For the variant C82U A120G A145U C150A U176G, the reverse-splicing fitness worked out at 0.00337.

For the variant C82U A120G A145U C150A U176C, the reverse-splicing fitness was found to be 0.0109.

Consider C82U A120G A145G C150G C169U U176A, for which the reverse-splicing fitness is 0.0122.

Consider C82U A120G A145G C150G C169U U176C, for which the reverse-splicing fitness is 0.0118.

With C82U A120G A145G C150G C169U U176G, the reverse-splicing fitness amounted to 0.00698.

Regarding C82U A120C C150A C169U U176A, the reverse-splicing fitness was determined as 0.0175.

In the case of C82U A120C C150A C169U U176G, the reverse-splicing fitness worked out at 0.00498.

With C82U A120C C150A C169U U176C, the reverse-splicing fitness worked out at 0.0169.

Take C82U A120G A145U C150G C169U U176A: the reverse-splicing fitness turned out to be 0.0132.

C82U A120G A145U C150G C169U U176G: the reverse-splicing fitness was found to be 0.0036.

Take C82U A120G A145U C150G C169U U176C: the reverse-splicing fitness was 0.0108.

On to C82U A120C C150G C169A U176C, for which the reverse-splicing fitness stood at 0.00991.

For the variant C82U A120C C150G C169A U176G, the reverse-splicing fitness turned out to be 0.00606.

On to C82U A120C C150G C169A U176A, for which the reverse-splicing fitness was found to be 0.0104.

On to C82U A120G A145G C169U U176G, for which the reverse-splicing fitness was found to be 0.00378.

Turning to C82U A120G A145G C169U U176A, the reverse-splicing fitness was determined as 0.0237.

As to C82U A120G A145G C169U U176C, the reverse-splicing fitness stood at 0.0187.

As to C82U A120G A145G C150G C169G U176C, the reverse-splicing fitness was 0.0112.

Regarding C82U A120G A145G C150G C169G U176A, the reverse-splicing fitness was 0.0089.

Turning to C82U A120G A145G C150G C169G U176G, the reverse-splicing fitness stood at 0.00523.

For the variant C82U A120G A145U C169G U176G, the reverse-splicing fitness came out at 0.00314.

As for C82U A120G A145U C169G U176C, the reverse-splicing fitness came out at 0.0138.

As for C82U A120G A145U C169G U176A, the reverse-splicing fitness turned out to be 0.0111.

On to C82U A120G A145G C150G U176G, for which the reverse-splicing fitness was 0.00539.

Turning to C82U A120G A145G C150G U176C, the reverse-splicing fitness is 0.00995.

Consider C82U A120G A145G C150G U176A, for which the reverse-splicing fitness was 0.00607.

Take C82U A120C A145U C150U C169G U176G: the reverse-splicing fitness is 0.00405.

For C82U A120C A145U C150U C169G U176A, the reverse-splicing fitness came out at 0.00914.

With C82U A120C A145U C150U C169G U176C, the reverse-splicing fitness came to 0.00724.

As for C82U A120G A145C C150A C169A U176C, the reverse-splicing fitness worked out at 0.0049.

Turning to C82U A120G A145C C150A C169A U176A, the reverse-splicing fitness came out at 0.0124.

As to C82U A120G A145C C150A C169A U176G, the reverse-splicing fitness was 0.00326.

For the variant C82U A120G C150G C169G, the reverse-splicing fitness came to 0.0077.

Turning to C82U A120G C150G C169U, the reverse-splicing fitness turned out to be 0.00921.

As to C82U A120G C150G C169A, the reverse-splicing fitness is 0.00923.

In the case of C82U A120G A145C C150A U176A, the reverse-splicing fitness amounted to 0.0076.

For C82U A120G A145C C150A U176G, the reverse-splicing fitness came to 0.00372.

As to C82U A120G A145C C150A U176C, the reverse-splicing fitness stood at 0.0066.

As to C82U A120G A145U C150U U176G, the reverse-splicing fitness is 0.00369.

Turning to C82U A120G A145U C150U U176C, the reverse-splicing fitness amounted to 0.0143.

Regarding C82U A120G A145U C150U U176A, the reverse-splicing fitness worked out at 0.0102.

With C82U A120C C169A U176G, the reverse-splicing fitness was 0.00409.

On to C82U A120C C169A U176C, for which the reverse-splicing fitness stood at 0.0121.

As to C82U A120C C169A U176A, the reverse-splicing fitness came out at 0.0143.

Turning to C82U A120G A145U C150A C169A, the reverse-splicing fitness is 0.00815.

For C82U A120G A145U C150A C169G, the reverse-splicing fitness was 0.0077.

For C82U A120G A145U C150A C169U, the reverse-splicing fitness was 0.0072.

In the case of C82U A120C C150A C169G U176A, the reverse-splicing fitness is 0.0156.

Regarding C82U A120C C150A C169G U176G, the reverse-splicing fitness stood at 0.00373.

Consider C82U A120C C150A C169G U176C, for which the reverse-splicing fitness is 0.0164.

With C82U A120G A145C C150G U176A, the reverse-splicing fitness is 0.00438.

With C82U A120G A145C C150G U176C, the reverse-splicing fitness was 0.00608.

For the variant C82U A120G A145C C150G U176G, the reverse-splicing fitness amounted to 0.00257.

Regarding C82U A120G A145C C169G U176A, the reverse-splicing fitness worked out at 0.0276.

As for C82U A120G A145C C169G U176C, the reverse-splicing fitness is 0.0161.

With C82U A120G A145C C169G U176G, the reverse-splicing fitness amounted to 0.00391.

Values taken from the RNAGym collection of RNA variant scans (doi:10.1093/molbev/msab373).
